Source: patent US20180298083A1 (US Dept. of Health and Human Services, published 2018)
Read-outs that look alike come from different tables or passages of the source.

Legend:
monomeric gp120^JRCSF = target: T1, monomeric gp120^JRCSF (HIV-1 strain JRCSF, UniProt P20871 32-503); assay: gp120 capture ELISA
T1 construct: domain: gp120

CAAN.A2 [1] = target: CAAN.A2 (HIV-1); assay: cell-based or functional assay
CAAN.A2 [2] = target: CAAN.A2 (HIV-1); assay: cell-based or functional assay; remark: listed apart in the source
CAAN.A2 [3] = target: CAAN.A2 (HIV-1); assay: cell-based or functional assay; remark: listed apart in the source
[4] = target: T2, SSB, Sjogren syndrome antigen B (Homo sapiens (Human), UniProt P05455 1-408); assay: Luminex AtheNA Multi-Lyte ANA test
T2 construct: also called SS-B/La
T2 sequence: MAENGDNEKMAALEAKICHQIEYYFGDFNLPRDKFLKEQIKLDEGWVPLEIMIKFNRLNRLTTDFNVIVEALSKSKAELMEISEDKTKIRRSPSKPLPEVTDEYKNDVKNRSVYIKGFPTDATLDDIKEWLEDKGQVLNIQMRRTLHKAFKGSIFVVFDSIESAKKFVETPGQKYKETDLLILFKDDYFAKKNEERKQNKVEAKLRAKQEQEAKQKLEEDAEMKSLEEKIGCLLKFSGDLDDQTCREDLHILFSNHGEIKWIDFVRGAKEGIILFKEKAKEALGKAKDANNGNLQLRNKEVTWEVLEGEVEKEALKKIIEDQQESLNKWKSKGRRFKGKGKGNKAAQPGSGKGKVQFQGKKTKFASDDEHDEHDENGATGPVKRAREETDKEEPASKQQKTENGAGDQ

[5] = target: T3, SSA, Sjogren's syndrome antigen A; assay: Luminex AtheNA Multi-Lyte ANA test
T3 construct: also called SSA/Ro

RNP, ribonucleoprotein = assay: Luminex AtheNA Multi-Lyte ANA test
CentrB, centromere B = assay: Luminex AtheNA Multi-Lyte ANA test
CentrB, centromere B, sequence (P07199 2-599): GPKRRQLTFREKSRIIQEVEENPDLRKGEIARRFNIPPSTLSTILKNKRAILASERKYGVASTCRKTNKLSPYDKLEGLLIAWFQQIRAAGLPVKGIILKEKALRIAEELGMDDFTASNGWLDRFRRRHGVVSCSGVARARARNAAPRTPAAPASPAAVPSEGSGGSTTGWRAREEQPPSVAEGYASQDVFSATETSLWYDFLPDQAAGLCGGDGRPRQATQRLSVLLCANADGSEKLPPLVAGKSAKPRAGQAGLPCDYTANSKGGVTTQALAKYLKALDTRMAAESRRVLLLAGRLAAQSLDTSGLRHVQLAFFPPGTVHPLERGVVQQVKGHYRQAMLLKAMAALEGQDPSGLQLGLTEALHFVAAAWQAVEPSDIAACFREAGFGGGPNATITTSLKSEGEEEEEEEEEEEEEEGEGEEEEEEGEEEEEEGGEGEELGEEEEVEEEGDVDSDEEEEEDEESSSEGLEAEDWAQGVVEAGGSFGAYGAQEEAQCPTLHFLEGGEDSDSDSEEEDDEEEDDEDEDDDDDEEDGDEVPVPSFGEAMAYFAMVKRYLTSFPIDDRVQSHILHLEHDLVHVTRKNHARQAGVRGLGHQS

Sm, Smith antigen = assay: Luminex AtheNA Multi-Lyte ANA test
[6] = target: T2, SSB, Sjogren syndrome antigen B; assay: Luminex AtheNA Multi-Lyte ANA test; remark: listed apart in the source
Histone = assay: Luminex AtheNA Multi-Lyte ANA test
Jo1 antigen = target: T4, Jo1 antigen; assay: Luminex AtheNA Multi-Lyte ANA test
T4 construct: also called Jol

B1: VRC-PG04 (antibody, V domains shown)
VH: QVQLVQSGSGVKKPGASVRVSCWTSEDIFERTELIHWVRQAPGQGLEWIGWVKTVTGAVNFGSPDFRQRVSLTRDRDLFTAHMDIRGLTQGDTATYFCARQKFYTGGQGWYFDLWGRGTLIVVSS
VL: EIVLTQSPGTLSLSPGETASLSCTAASYGHMTWYQKKPGQPPKLLIFATSKRASGIPDRFSGSQFGKQYTLTITRMEPEDFARYYCQQLEFFGQGTRLEIR
Binding affinity relative to WT (%) (monomeric gp120^JRCSF): 100%

B2: VRC01 (antibody, V domains shown)
VH: QVQLVQSGGQMKKPGESMRISCRASGYEFIDCTLNWIRLAPGKRPEWMGWLKPRGGAVNYARPLQGRVTMTRDVYSDTAFLELRSLTVDDTAVYFCTRGKNCDYNWDFEHWGRGTPVIVSS
VL: EIVLTQSPGTLSLSPGETAIISCRTSQYGSLAWYQQRPGQAPRLVIYSGSTRAAGIPDRFSGSRWGPDYNLTISNLESGDFGVYYCQQYEFFGQGTKVQVDI
neutralisation IC50 (CAAN.A2 [1]): 1.06 µg/mL | neutralisation IC50 (CAAN.A2 [2]): 1.06 µg/mL | neutralisation IC50 (CAAN.A2 [3]): 1.06 µg/mL

B3: N6 antibody (antibody, V domains shown)
VH: RAHLVQSGTAMKKPGASVRVSCQTSGYTFTAHILFWFRQAPGRGLEWVGWIKPQYGAVNFGGGFRDRVTLTRDVYREIAYMDIRGLKPDDTAVYYCARDRSYGDSSWALDAWGQGTTVVVSA
VL: YIHVTQSPSSLSVSIGDRVTINCQTSQGVGSDLHWYQHKPGRAPKLLIHHTSSVEDGVPSRFSGSGFHTSFNLTISDLQADDIATYYCQVLQFFGRGSRLHIK
notes: also called N6 mAb
binding result [4]: no binding (tested: 50 µg/ml) | Luminex reactivity (unit not given) [5]: 36.4 | Luminex reactivity (unit not given) (RNP, ribonucleoprotein): 16.8 | Luminex reactivity (unit not given) (CentrB, centromere B): 22 | Luminex reactivity (unit not given) (Sm, Smith antigen): 5.2 | Luminex reactivity (unit not given) [6]: 100 | Luminex reactivity (unit not given) (Histone): 50.6 | Luminex reactivity (unit not given) (Jo1 antigen): 56.4
